Results: PMC9425024
Where “and” joins values, the source holds several entries; their conditions need not be identical. Identical values can stand only once.

What was measured:
[1] = target: wildtype Arabidopsis thaliana (At) ProXp-ala (Arabidopsis thaliana); assay: SEC-MALS; Superdex 200 Increase 10/300 GL in 50 mM Hepes pH 6.8, 30 mM KCl, 2 mM DTT, 1 mM MgCl2; 100 μl of 3 mg/ml WT, 6 mg/ml ΔCTD or 1.5 mg/ml CTD injected; self-association
[2] = target: CTD At ProXp-ala (Arabidopsis thaliana); assay: as above

Row | Substance | stoichiometry N [1] | stoichiometry N [2]
1 | wildtype Arabidopsis thaliana (At) ProXp-ala (enzyme) | 2 | –
2 | CTD At ProXp-ala (domain or fragment) | – | 2 and 4
